Data on 4 substances can be found in PMC5966876.

For this test, the target named is cyclin T1 (UniProt O60563). The experiment in a line: co-immunoprecipitation (anti-Flag IP, western blot quantification). The following applies: 293T cells, lysed at 48 h posttransfection; 12% SDS-PAGE; parent: est. 100; read off a plot. In general terms: A western blot detects proteins with antibodies after separation by electrophoresis.
Chain of UniProt O60563 (O60563 whole entry): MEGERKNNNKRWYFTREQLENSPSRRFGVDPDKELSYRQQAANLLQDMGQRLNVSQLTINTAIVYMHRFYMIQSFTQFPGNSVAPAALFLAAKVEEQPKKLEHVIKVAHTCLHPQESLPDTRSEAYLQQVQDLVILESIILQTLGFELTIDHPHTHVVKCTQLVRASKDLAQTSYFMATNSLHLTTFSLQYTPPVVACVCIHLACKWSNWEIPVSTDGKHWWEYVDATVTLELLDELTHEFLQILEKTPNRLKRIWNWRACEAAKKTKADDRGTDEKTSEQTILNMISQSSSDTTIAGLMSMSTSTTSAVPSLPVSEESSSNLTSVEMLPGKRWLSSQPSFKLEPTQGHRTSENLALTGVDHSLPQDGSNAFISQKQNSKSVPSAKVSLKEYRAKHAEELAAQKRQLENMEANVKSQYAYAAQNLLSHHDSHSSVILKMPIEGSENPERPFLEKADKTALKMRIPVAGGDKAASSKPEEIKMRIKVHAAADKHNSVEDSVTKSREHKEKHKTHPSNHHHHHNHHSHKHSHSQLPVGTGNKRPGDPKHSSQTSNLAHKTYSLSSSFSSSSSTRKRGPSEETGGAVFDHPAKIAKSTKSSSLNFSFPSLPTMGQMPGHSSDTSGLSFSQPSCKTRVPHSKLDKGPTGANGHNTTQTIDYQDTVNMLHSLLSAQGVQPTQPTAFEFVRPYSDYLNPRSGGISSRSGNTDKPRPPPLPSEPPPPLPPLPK
Consider Flag-tagged HIV-1 Tat (WT) S46D, for which the percent of parent was 22 % of WT Tat.

Take Flag-tagged HIV-1 Tat (WT) S46A: the percent of parent is 45 % of WT Tat.

Flag-tagged HIV-1 Tat (WT) S16A: the percent of parent was 48 % of WT Tat.

With Flag-tagged HIV-1 Tat (WT) S16D, the percent of parent was 20 % of WT Tat.
